Experimental data taken from US20090202506A1 (ORTHO MCNEIL PHARMACEUTICAL, published 2009).
Each block holds one binder with its values, some of them ahead of it.

Columns and labels:
D^b MHC class I molecule [1] = biological target: T1, D^b MHC class I molecule (;mouse, UniProt P01887 21-119; P01899 25-309, limits assumed); assay: MHC class I stabilization assay, flow cytometry on RMAS cells
T1 construct: Empty class I molecule on the surface of RMAS cells; also called D^b class I molecules
T1 sequence (MHC heavy, looked up): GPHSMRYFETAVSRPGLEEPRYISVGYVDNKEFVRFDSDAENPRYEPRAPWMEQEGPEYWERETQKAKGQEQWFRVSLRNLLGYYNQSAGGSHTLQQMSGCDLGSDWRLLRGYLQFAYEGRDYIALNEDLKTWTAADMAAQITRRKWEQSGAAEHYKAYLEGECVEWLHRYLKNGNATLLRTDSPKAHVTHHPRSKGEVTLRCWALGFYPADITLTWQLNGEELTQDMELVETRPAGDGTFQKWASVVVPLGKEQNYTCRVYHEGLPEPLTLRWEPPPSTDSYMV
T1 sequence (b2m, looked up): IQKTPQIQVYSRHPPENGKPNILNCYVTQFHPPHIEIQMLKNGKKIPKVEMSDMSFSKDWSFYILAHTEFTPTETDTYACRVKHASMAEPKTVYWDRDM
Procedure: (§1) The binding capacity of these synthetic peptides to L^d and D^b class I molecules were tested in an MHC class I stabilization assay (Cai et al. (1996) supra). Antigen-transporting deficient (TAP) RMAS cells (H-2^b) or L^d transfected RMAS (RMAS-L^d) cells were cultured in the presence of a titrated concentration of peptides at 27° C. After overnight culturing at 27° C., these cells were further cultured for two hours at 37° C. and the surface expression of L^d or D^b on the cells were analyzed by flow cytometry. […] Of the five peptides predicted bind to D^b, only IgE44 binds Db strongly and two peptides, IgE16 and IgE125, bind D^b weakly. […] Thus, a total of six peptides were identified that bind to either L^d or D^b MHC class I molecules.

L^d MHC class I molecule [2] = biological target: T2, L^d MHC class I molecule (;mouse, UniProt P01887 21-119; P01897 25-362, limits assumed); assay: MHC class I stabilization assay, flow cytometry on RMAS-L^d cells
T2 construct: Empty class I molecule on the surface of RMAS-L^d cells; also called L^d class I molecules
T2 sequence (MHC heavy, looked up): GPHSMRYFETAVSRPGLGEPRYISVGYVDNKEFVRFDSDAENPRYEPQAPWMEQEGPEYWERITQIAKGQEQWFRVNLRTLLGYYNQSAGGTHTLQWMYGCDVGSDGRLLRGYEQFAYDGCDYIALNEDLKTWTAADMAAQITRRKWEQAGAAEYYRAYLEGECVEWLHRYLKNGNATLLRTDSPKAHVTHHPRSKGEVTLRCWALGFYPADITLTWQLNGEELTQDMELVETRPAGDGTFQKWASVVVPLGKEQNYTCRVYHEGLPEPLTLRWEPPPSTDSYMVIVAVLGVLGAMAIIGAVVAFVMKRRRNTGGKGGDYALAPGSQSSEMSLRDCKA
T2 sequence (b2m, looked up): T1 sequence (b2m, looked up)
Procedure: as §1

L^d MHC class I molecule [3] = biological target: T2, L^d MHC class I molecule; assay: MHC class I stabilization assay, flow cytometry of surface L^d on RMAS-L^d cells with titrated peptide
Procedure: as §1

D^b MHC class I molecule [4] = biological target: T1, D^b MHC class I molecule; assay: MHC class I stabilization assay, flow cytometry of surface D^b on RMAS cells with titrated peptide
Procedure: as §1

binding result (L^d MHC class I molecule [3]): no binding
Binder: IPPSPLDLY [IgE 209]

binding result (D^b MHC class I molecule [4]): no binding
Binder: TSLGNTSLR [IgE 411]

binding result (L^d MHC class I molecule [3]): no binding
Binder: HSSCDPNAF [IgE 105]

binding result (L^d MHC class I molecule [3]): no binding
Binder: FPNPVTVTW [IgE 29]

binding result (L^d MHC class I molecule [3]): no binding
Binder: RSAPEVYVF [IgE 307]

binding result (D^b MHC class I molecule [4]): no binding
Binder: ASTCSKLNI [IgE 159]

binding result (L^d MHC class I molecule [3]): no binding
Binder: KSNGSNQGF [IgE 363]

The remaining lines, values behind:

Binder: GSNQGFFIF [IgE 366]
binding result (D^b MHC class I molecule [1]): binds
binding result (L^d MHC class I molecule [2]): binds

Binder: HSTIQLYCF [IgE 114]
binding result (L^d MHC class I molecule [2]): binds

Binder: KPCKGTASM [IgE 11]
ratio of fluorescence intensity (with peptide - without peptide)/without peptide (L^d MHC class I molecule [2]): > 2 fold

Binder: MSTVNFPAL (also called MSTVNFPAL) [IgE 44]
ratio of fluorescence intensity (with peptide - without peptide)/without peptide (D^b MHC class I molecule [1]): > 2 fold

Binder: TASMTLGCL [IgE 16]
binding result (D^b MHC class I molecule [1]): binds

Binder: GHILNDVSV [IgE 125]
binding result (D^b MHC class I molecule [1]): binds
